Columns and labels:
[1] = target: pyruvate kinase isoform M2 (PKM2), endogenous in immortalized hepatocytes (human (endogenous in NeHepLxHT)) (UniProt P14618); test: cross-linking; cell lysate treated with 0.1% glutaraldehyde for 20 minutes at 25°C, stopped with 50 mM Tris pH 8.0, SDS-PAGE and western blot for PKM2; control and LHBS-expressing immortalized hepatocytes, HuH-7 and HepG2 cells infected with Ad-HBV-KO or Ad-HBV-WT
[2] = target: pyruvate kinase isoform M2 (PKM2), endogenous in immortalized hepatocytes (human (endogenous in NeHepLxHT)) (UniProt P14618); test: glycerol density gradient centrifugation

Chain of pyruvate kinase isoform M2 (PKM2), endogenous in immortalized hepatocytes, P14618 1-531 (enzyme; other documents disagree on this pair) (P14618 whole entry, canonical isoform): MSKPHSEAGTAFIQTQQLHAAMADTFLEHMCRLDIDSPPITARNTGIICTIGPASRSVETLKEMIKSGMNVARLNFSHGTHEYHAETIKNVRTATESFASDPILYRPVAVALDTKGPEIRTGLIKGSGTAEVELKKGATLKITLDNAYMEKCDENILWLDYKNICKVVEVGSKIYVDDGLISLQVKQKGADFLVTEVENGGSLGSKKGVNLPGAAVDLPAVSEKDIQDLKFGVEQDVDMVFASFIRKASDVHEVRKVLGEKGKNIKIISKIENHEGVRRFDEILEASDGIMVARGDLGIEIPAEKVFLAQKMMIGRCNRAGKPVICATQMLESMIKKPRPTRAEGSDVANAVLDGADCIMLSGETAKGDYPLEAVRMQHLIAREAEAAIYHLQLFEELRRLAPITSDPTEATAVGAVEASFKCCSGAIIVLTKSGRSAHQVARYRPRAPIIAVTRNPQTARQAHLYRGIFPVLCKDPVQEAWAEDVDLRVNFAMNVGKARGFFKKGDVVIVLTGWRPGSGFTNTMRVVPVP

pyruvate kinase isoform M2 (PKM2), endogenous in immortalized hepatocytes, P14618 1-531 (enzyme; other documents disagree on this pair)
stoichiometry N [1]: 2
stoichiometry N [2]: 2
